# Reference: patent US20200069786A1, “COMPOSITION AND PROCESS FOR PREPARING VACCINE” (TREOS BIO ZRT., priority 2018, published 2020)
# Where two headings read alike, the source gives them in different places.
# What was measured:
# [1] = system: metastatic ovarian adenocarcinoma; experiment: Patient-A clinical outcome and tumor MRI; type: in vivo, human
# From the text: 2017-2018: Patient-A received 8 cycles of vaccination as add-on therapy, and lived 17 months (528 days) after start of the treatment. […] They died in October 2018.
# Patient' tumor MRI findings (Baseline Apr. 15, 2016) (BL: baseline for tumor response evaluation on FIG. 22) Disease was confined primarily to liver and lymph nodes. The use of MRI limits detection of lung (pulmonary) metastasis May 2016-January 2017: Olaparib treatment (FU1: follow up 1 on FIG. 22) Dec. […] Peritoneal carcinomatosis with increased amount of ascites. Progressive hepatic tumor and lymph node
# Jul. 26, 2017 (after the 2nd Cycle of PIT): (FU4 on FIG. 22) Progression/Pseudo-Progression • Rapid progression in lymph nodes, hepatic, retroperitoneal and thoracic areas, significant pleural fluid and ascites. Initiate Carboplatin, Gemcitabine, Avastin. Sep. […] Nov. […] Remission in hepatic, retroperitoneal area and lymph nodes
# TSA = details: cited from earlier work
# [2] = system: subjects of 64 clinical studies; details: published clinical trials, cited from earlier work; for IRR: proportion of subjects in the study population with T cell responses induced by the study vaccine
# [3] = FU1, Olaparib treatment May 2016-January 2017
# [4] = FU2, Dec. 25, 2016, before PIT vaccine treatment
# [5] = FU3, Apr. 6, 2017, after TOPO protocol
# [6] = TSA expression rate in Esophageal
# [7] = TSA expression rate in MELANOMA
# [8] = TSA expression rate in PROSTATE cancer
# [9] = TSA expression rate in GASTRIC cancer
compound,measurement,setting,value
O=C(c1cc(Cc2n[nH]c(=O)c3ccccc23)ccc1F)N1CCN(C(=O)C2CC2)CC1 [Olaparib],SUM of lesions (% Δ from BL),[1]; [3],−66.3%
same,TL1 (% Δ from BL),[1]; [3],−56.1%
same,TL2 (% Δ from BL),[1]; [3],−100.0%
same,TL3 (% Δ from BL),[1]; [3],−59.4%
same,TL4 (% Δ from BL),[1]; [3],−65.8%
same,SUM of lesions (% Δ from BL),[1]; [4],−76.0%
same,TL1 (% Δ from BL),[1]; [4],−44.4%
same,TL2 (% Δ from BL),[1]; [4],−100.0%
same,TL3 (% Δ from BL),[1]; [4],−62.3%
same,TL4 (% Δ from BL),[1]; [4],−100.0%
CC[C@@]1(O)C(=O)OCc2c1cc1n(c2=O)Cc2cc3c(CN(C)C)c(O)ccc3nc2-1 [TOPO protocol],SUM of lesions (% Δ from BL),[1]; [5],−68.9%
same,TL1 (% Δ from BL),[1]; [5],−44.8%
same,TL2 (% Δ from BL),[1]; [5],−47.1%
same,TL3 (% Δ from BL),[1]; [5],−62.0%
same,TL4 (% Δ from BL),[1]; [5],−100.0%
"BAGE-1 (RLMKEESPVVSWRLEPEDGTALCFIF; UniProt Q13072 18-43, looked up)",TSA Expression Rate (ER),TSA; BREAST,9%
same,Expression Rate (ER) %,TSA; TSA expression rate in CRC,0%
same,Expression Rate (ER) %,TSA; [6],6%
same,Expression Rate (ER) %,TSA; TSA expression rate in HEAD and NECK,6%
same,Expression Rate (ER) %,TSA; TSA expression rate in Kidney,0%
same,Expression Rate (ER) %,TSA; TSA expression rate in LUNG cancer,10%
same,Expression Rate (ER) %,TSA; [7],26%
same,Expression Rate (ER) %,TSA; [8],0%
"BAGE-5 (RLMKEESPVVSWRLEPEDGTALCFIF; UniProt Q86Y27 18-43, looked up)",Expression Rate (ER) %,TSA; [7],9%
CASC5,TSA Expression Rate (ER),TSA; LUNG,41%
same,TSA Expression Rate (ER),TSA; PANCREATIC,27%
CDCA1,TSA Expression Rate (ER),TSA; BREAST,64%
same,TSA Expression Rate (ER),TSA; HCC,100%
same,TSA Expression Rate (ER),TSA; LUNG,85%
same,Expression Rate (ER) %,TSA; TSA expression rate in BLADDER cancer,100%
same,Expression Rate (ER) %,TSA; TSA expression rate in CRC,40%
same,Expression Rate (ER) %,TSA; TSA expression rate in Cervical cancer,18%
same,Expression Rate (ER) %,TSA; [6],22%
same,Expression Rate (ER) %,TSA; [9],0%
same,Expression Rate (ER) %,TSA; TSA expression rate in Kidney,100%
same,Expression Rate (ER) %,TSA; [8],85%
DBPC,TSA Expression Rate (ER),TSA; BREAST,50%
same,TSA Expression Rate (ER),TSA; HCC,40%
same,TSA Expression Rate (ER),TSA; LUNG,30%
same,TSA Expression Rate (ER),TSA; OVARIAN,20%
same,TSA Expression Rate (ER),TSA; PANCREATIC,60%
same,Expression Rate (ER) %,TSA; TSA expression rate in CRC,90%
same,Expression Rate (ER) %,TSA; [9],50%
same,Expression Rate (ER) %,TSA; TSA expression rate in Kidney,10%
same,Expression Rate (ER) %,TSA; [8],40%
DCAF12,TSA Expression Rate (ER),TSA; LUNG,89%
same,Expression Rate (ER) %,TSA; [8],59%
DKK1,TSA Expression Rate (ER),TSA; PANCREATIC,84%
DMRT1,Expression Rate (ER) %,TSA; [8],24%
EPHA2,TSA Expression Rate (ER),TSA; BRAIN,95%
same,Expression Rate (ER) %,TSA; TSA expression rate in PEDIATRIC,100%
EZH2,TSA Expression Rate (ER),TSA; BRAIN,100%
"Her2/neu peptide vaccine (p688) (RRLLQETEL; UniProt P04626 688-696, looked up, fragment)",IRR,[2],31%
"Her2/neu peptide vaccine (p971) (ELVSEFSRM; UniProt P04626 971-979, looked up, fragment)",IRR,[2],54%
Iplilimumab (NYESO-1 specific response),IRR,[2],72%
same,ORR,[2]; proportion of subjects with objective response (complete and partial response) after vaccination,25%
JARID1B,TSA Expression Rate (ER),TSA; BREAST,76%
same,TSA Expression Rate (ER),TSA; HCC,29%
same,TSA Expression Rate (ER),TSA; LUNG,55%
same,TSA Expression Rate (ER),TSA; OVARIAN,71%
same,Expression Rate (ER) %,TSA; TSA expression rate in LEUKEMIAS,60%
same,Expression Rate (ER) %,TSA; [7],100%
same,Expression Rate (ER) %,TSA; [8],100%
